The subject of the series is T1, CHD1.ZnF3-8 (CHD1 zinc fingers 3 through 8) (Homo sapiens).
T1 sequence: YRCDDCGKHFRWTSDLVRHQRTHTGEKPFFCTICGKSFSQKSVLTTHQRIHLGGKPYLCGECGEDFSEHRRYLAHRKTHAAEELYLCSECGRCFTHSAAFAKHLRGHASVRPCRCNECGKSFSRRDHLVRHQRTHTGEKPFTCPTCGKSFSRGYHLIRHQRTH
In words: EMSA. Particulars: apparent, upper limit from protein dilution; poly d(I:C) does not compete. A general note: A gel shift assay detects complexes by their altered migration in electrophoresis.

Regarding ApoAIV promoter fragment -573 to -165, the Kd was determined as 10 nM.

Values taken from patent US6225451.
